In assay [1] the target is microtubules polymerised from tubulin (biotinylated, Alexa 647-labelled, taxol-stabilised) (UniProt P02550). Nature of the assay: single-molecule TIRF microscopy; biotinylated, Alexa 647-labelled, taxol-stabilised microtubules held on PLL-PEG-biotin/streptavidin glass; TMR-dynein at 0.29 and 0.58 nM in TAB (25 mM HEPES pH 7.2, 5 mM MgSO4, 1 mM EGTA, 1 mM DTT) with α-casein, 25 mM KCl and MgATP; room temperature; Kd estimated as Koff (reciprocal of the dwell time) over Kon (binding rate) times 802 binding sites per μm.

In assay [2] the target is human cytoplasmic dynein-1 heavy chain, wild type, as a subunit of the dynein complex (human) (UniProt Q14204). Nature of the assay: electron microscopy of single particles; freshly purified protein produced in insect cells; how the proportion was counted is not told.
Assay [3] has the same target. Nature of the assay: negative stain EM with 2D classification; dynein at about 0.05 mg/ml in GF150, uranyl acetate; particles sorted into phi, open or ambiguous classes; mean and SEM of 9 draws of 25 micrographs.

Where only a bound is given, the exact number is not on record here.

A word on the Kd: it is the free concentration of one partner at which half of the binding sites on the other are occupied at equilibrium, for simple one-to-one binding.

“full-length human cytoplasmic dynein-1 complex with the phi-interface mutations K1610E and R1567E in the heavy chain (from UniProt Q14204 1-4646; Q13409 1-638; O43237 1-492; Q9NP97 1-96; P63167 1-89; P63172 1-113)”: the Kd in assay [1] is 5.22 µM.

For “full-length human cytoplasmic dynein-1 complex, wild type (from UniProt Q14204 1-4646; Q13409 1-638; O43237 1-492; Q9NP97 1-96; P63167 1-89; P63172 1-113)”, the Kd in assay [1] was 16.4 µM.

In the case of “human cytoplasmic dynein-1 heavy chain, wild type, as a subunit of the dynein complex, Q14204 1-4646”, the percent of molecules in the phi-particle (motor domains self-dimerised) is more than 85% in assay [2] and 75% in assay [3]. In assay [3], this substance yielded a percent of molecules in the open form (motor domains apart) of 22%.

These data come from article PMC5473941.
